# Molecular target: Irgb6 (mouse (endogenous in macrophages)) (UniProt Q62293)
# Assay: co-IP
# Sequence of UniProt Q62293 (Q62293 whole entry): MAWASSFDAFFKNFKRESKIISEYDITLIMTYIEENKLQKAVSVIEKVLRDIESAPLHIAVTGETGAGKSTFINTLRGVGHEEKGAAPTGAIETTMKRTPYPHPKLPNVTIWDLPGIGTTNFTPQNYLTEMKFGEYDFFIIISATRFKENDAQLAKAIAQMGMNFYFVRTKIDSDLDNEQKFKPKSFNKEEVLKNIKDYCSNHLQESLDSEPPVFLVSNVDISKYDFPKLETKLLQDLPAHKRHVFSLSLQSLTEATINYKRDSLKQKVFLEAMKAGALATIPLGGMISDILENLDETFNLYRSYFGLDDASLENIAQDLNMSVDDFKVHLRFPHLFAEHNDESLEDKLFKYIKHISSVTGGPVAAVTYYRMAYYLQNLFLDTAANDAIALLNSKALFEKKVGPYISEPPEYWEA
substance,measurement,value
kinase-dead ROP18 D/A (Ty-tagged; expressed in transgenic type III parasites) (from UniProt Q2PAY2 1-554) (enzyme),fold change of co-precipitated ROP18 against active ROP18,3 fold

# Reference: article PMC3013631
